The source of these data is patent US20240100159A1, “USE OF IL-7R-ALPHA-GAMMA AGONIST PEPTIDES IN CELL MANUFACTURING” (MEDIKINE, INC., priority 2022, published 2024).

The target in the assay is T1, hu-IL-7Rα subunit (human, UniProt P16871 21-239, limits assumed).
T1 construct: also called human interleukin-7 receptor subunit α; CD127
T1 sequence (looked up): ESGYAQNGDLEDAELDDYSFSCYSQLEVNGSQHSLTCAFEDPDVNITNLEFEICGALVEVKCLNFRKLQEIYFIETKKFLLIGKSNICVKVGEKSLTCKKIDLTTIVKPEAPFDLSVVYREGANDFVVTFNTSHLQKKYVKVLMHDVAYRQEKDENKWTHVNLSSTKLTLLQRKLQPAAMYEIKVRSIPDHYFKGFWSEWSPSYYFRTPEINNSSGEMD
As to the kind of experiment: phage ELISA competition assay.

One may read the IC50 as the concentration at which inhibition is half-maximal. A lower IC50 goes with inhibition by little substance. In turn, SLTVPWCTLDPGSMQCAWLQNR (also called IL-7Rα ligand) [SEQ ID NO 112] returned an IC50 below 10 µM.
